Measured values as given in doi:10.1101/402990 (bioRxiv, 2018).

Target: T1, 6His-Tea3 (S. pombe, UniProt O14248 1-1125)
T1 sequence (looked up): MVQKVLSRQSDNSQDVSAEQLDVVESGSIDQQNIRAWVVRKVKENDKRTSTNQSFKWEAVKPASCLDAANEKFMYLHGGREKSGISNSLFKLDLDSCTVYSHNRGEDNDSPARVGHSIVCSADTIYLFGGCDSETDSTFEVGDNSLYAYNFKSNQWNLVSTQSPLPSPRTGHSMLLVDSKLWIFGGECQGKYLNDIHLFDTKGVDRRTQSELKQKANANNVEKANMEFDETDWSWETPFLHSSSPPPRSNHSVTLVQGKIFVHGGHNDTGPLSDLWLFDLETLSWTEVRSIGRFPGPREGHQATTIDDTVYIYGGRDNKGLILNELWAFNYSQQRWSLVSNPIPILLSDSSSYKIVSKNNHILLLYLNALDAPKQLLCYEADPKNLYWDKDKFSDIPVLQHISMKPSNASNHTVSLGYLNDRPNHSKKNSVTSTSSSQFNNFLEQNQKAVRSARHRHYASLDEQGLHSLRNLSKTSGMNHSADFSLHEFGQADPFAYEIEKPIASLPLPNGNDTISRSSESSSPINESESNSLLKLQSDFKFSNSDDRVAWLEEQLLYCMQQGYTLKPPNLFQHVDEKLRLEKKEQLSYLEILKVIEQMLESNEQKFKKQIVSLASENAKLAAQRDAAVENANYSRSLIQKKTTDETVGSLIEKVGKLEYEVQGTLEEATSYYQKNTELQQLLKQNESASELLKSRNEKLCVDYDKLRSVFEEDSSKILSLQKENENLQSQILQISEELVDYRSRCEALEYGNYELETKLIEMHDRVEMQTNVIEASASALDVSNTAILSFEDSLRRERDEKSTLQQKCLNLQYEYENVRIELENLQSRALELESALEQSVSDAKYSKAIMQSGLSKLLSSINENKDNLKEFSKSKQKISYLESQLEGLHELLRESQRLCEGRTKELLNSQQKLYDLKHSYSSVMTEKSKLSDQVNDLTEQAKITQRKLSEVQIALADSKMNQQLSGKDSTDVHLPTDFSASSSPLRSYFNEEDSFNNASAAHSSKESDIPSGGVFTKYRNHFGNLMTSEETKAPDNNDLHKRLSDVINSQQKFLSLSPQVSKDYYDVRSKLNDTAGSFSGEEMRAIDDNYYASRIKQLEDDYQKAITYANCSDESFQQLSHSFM
Assay: pull-down

binding result: binds
B1: GST-Shk1 (enzyme, S. pombe, UniProt P50527 1-658, looked up)
chain: MERGTLQPRKKAPNGYGITPIVAHKTGEPVRYEVEDDLRKLKPSRTAPKPPAINTNLAEDTFSGFPLSQSRTTVSRVSLGSRQHSSSSIRKLQTNVSDVRSYDERNQKKSAFENFVSSMSSFLTGGGSSPTSSYGSGSASPRKSTVISSPFDPKHVTHVGFNYDTGEFTGMPTEWQALLKVSGITKSEQVQHPQAVLDAMAFYSQSKKYLEEGAKPPFPRESTEKPLLSVSALSSSSHLQPTSATSSSSRLYPSRPAPTPPASSSSSPLLSSQTVKTTTSNASRQPSPLVSSKSTDNIIRSHSPVLLTPQTLSTSETKHIRPNNSTPYQRRAETSTKPKAVATPQKVEAPSAPRLQKRAPRQQSNDSAVLAKLQSICNPKNPTLLYRNFVKIGQGASGDVYSARQVGTNLSVAIKKMNINQQPKKEFIVNEILVMKSHHHKNIVNFIDTFFYKSELWMVMEYMRGGSLTEVVTNNTLSEGQIAAICKETLEGLQHLHENGIVHRDIKSDNILLSLQGDIKLTDFGFCAQIDSNMTKRTTMVGTPYWMAPEVVTRKEYGFKVDVWSLGIMAIEMVEGEPPYLNENPLRALYLIATIGTPKISRPELLSSVFHDFLSKSLTVNPKQRPSSGELLRHPFLKQAVPVSSLIPLIKSIHHSGK
